19 sequences from the supplement of paper PMC9170038 can be followed below.

In data set [1] the test system is MS2 coat protein. The experiment in a line: apparent KD of MS2 coat protein, switch OFF state (with FMN for OFF switches, without FMN for ON switches); designed switch direction (-1 OFF switch, 1 ON switch): 1; higher = weaker reporter binding. The following applies: FMN input: 0 or 200 uM; Eterna round: R93 (includes R88 designs). In short, it runs like this:
(§1)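 Designed RNA switches, transcribed on-chip from Illumina sequencing clusters, were titrated with SNAP-549-labelled MS2 coat protein from 0.7 or 1.5 nM to 3 µM in twofold steps. The solution was 100 mM Tris-HCl pH 7.5, 80 mM KCl, 4 mM MgCl2, with constant ligand or without it. Apparent KD is the median over each design's normalised cluster binding-curve fits.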

Data set [2] concerns MS2 coat protein. Kind of data set: apparent KD of MS2 coat protein, switch ON state; designed switch direction (-1 OFF switch, 1 ON switch): 1; higher = weaker reporter binding. The note with it: FMN input: 0 or 200 uM; Eterna round: R93 (includes R88 designs). In short, it runs like this: as §1

Turning to “CGGGAAGAGAGAGAGGAUAUCCAAAGGAAAACAUGAGGAUCACCCAUGUAGAAGGUAGGAAAUUGGGAGAAGGCUCAAGAGAGAG [salish99-ss2-134]”, the “apparent KD of MS2 coat protein” value in data set [1] came out at 33.7 nM; in data set [2], 37.2 nM.

Take “GCAGGGCUAAACUAGGAUAUGGGUGUCUAGACAUGAGGAUCACCCAUGUGAUGGCAAAACAAAGCUCAGAAGGAGUGGUAGCCCA [Quendi]”: the “apparent KD of MS2 coat protein” value is 75.4 nM in data set [1] and 11.9 nM in data set [2].

For “AAAAGACAUGAGGAUCACCCAUGUAGGCCAAAGCAAGGAUAUAGGCCACAGGGACGUGGACUAGAAGGUGCACGGC [Xereedes]”, the “apparent KD of MS2 coat protein” value turned out to be 107 nM in data set [1] and 21.9 nM in data set [2].

In the case of “AUGGUCAAGUGUGAGGAUAUCCAUGCUCCCACAUGAGGAUCACCCAUGUCUUAAAGGGCGUAAAGGGAGAAGGUACGAACGCCAC [Edatxein]”, the “apparent KD of MS2 coat protein” value in data set [1] was found to be 78.3 nM; in data set [2] it was 40.7 nM.

For “AUAAUAAUAAGAUAGGAUAUACUAAAGUAAACAUGAGGAUCACCCAUGUAAAGAAAAAAACUCAUGUAGAAGGGUCAUAAAUAAA [moonwalk 1]”, the “apparent KD of MS2 coat protein” value in data set [1] is 48.6 nM; in data set [2] it was 46.3 nM.

With “AUAUGACAUGAGGAUCACCCAUGUAUUCGAGCAUGAGGAUAUAUGACUAGUCAUAGGAGGAUAGAAGGCAUGGUUG [JR_SS001_Sub1217]”, the results for the “apparent KD of MS2 coat protein” value in data set [1] and in data set [2] were 169 nM and 76.2 nM, respectively.

With “AAAAGACAUGAGGAUCACCCAUGUCGAAAGACAUGAGGAUAUGUACAGACUUCGGUCUGUACAGAAGGCAUGAAAA [SS1 - 1067]”, the “apparent KD of MS2 coat protein” value in data set [1] turned out to be 68.7 nM; in data set [2], 17.1 nM.

“AAAAAACAUGAGGAUCACCCAUGUAAAAAAAACACAGGAUAUCCCUUUUAAAAAAAAAAAGGAGAAGGGUGAAAAA [Nob's Hobby 5 - Jieux - Same State 1]”: the “apparent KD of MS2 coat protein” value was 29.9 nM in data set [1] and 16.1 nM in data set [2].

“GACAGACAUGAGGAUCACCCAUGUACAAACGUACAAGGAUAUGUGUGGAAACCGUACUAUACAGAAGGUGUCUGUC [SS1 - 90]”: the entries for the “apparent KD of MS2 coat protein” value in data set [1] and in data set [2] were 90.3 nM and 126 nM, respectively.

Regarding “GGCUGCGUUGUGAAGGAUAUCCGCGUCUGGACAUGAGGAUCACCCAUGUAUACUUGGAUCGUGCAGGAGAAGGUCAAGGGUGAUU [JR_SS002_Sub1211]”, the “apparent KD of MS2 coat protein” value in data set [1] was 63.3 nM; in data set [2], 130 nM.

Turning to “UGGAGACAUGAGGAUCACCCAUGUGAGAAGAGGCGAGGAUAUCGAAAGAAAGAAGAGAAACGAGAAGGCGCGAGCU [salish99-SS1-037]”, the entries for the “apparent KD of MS2 coat protein” value in data set [1] and in data set [2] were 36.1 nM and 22.4 nM, respectively.

Turning to “AUAACACAUGAGGAUCACCCAUGUAGAAACAAGUCAGGAUAUGCGACCUCAUGAAAUAAAGCAGAAGGGACACUAA [SS 1 Tesla 5]”, the “apparent KD of MS2 coat protein” value in data set [1] was found to be 150 nM; in data set [2], 31.5 nM.

Consider “CAGGACCUAGGAUAGGAUAUAUGAAUAAUUACAUGAGGAUCACCCAUGUCCAUUUAUAUGGGAACAUAGAAGGGUUCUGGUUAUG [Mat - Same state - Malcolm Mod - D134]”, for which the “apparent KD of MS2 coat protein” value turned out to be 50.3 nM in data set [1] and 20.8 nM in data set [2].

Take “AGAAAUAAAUCUCAGGAUAUGGGUAAAUAAACAUGAGGAUCACCCAUGUAAAAGAAAAUAAAAAACCAGAAGGGAGAAAAUAAGA [Designing denovo 2]”: the figures for the “apparent KD of MS2 coat protein” value in data set [1] and in data set [2] were 39.2 nM and 16.2 nM, respectively.

With “AAAUAUAAAAACUAGGAUAUACUAAAAUAAACAUGAGGAUCACCCAUGUAAAAAAAAAAACUCAUGUAGAAGGAGUAAAUAUAAA [ss2 9th]”, the “apparent KD of MS2 coat protein” value in data set [1] turned out to be 13.8 nM; in data set [2], 22.6 nM.

For the sequence “AGAAAUAAAAGAGAGGAUAUUCAAAAAGGGACAUGAGGAUCACCCAUGUAAAAGAAAAUAAAAUGGGAGAAGGCUCAAAAUAAAG [80%, More Helter Skelter 2]”, the “apparent KD of MS2 coat protein” value worked out at 61.7 nM in data set [1] and 85.5 nM in data set [2].

Regarding “AAAUAAAUGACUGAGGAUAUAUCGAAGAAGACAUGAGGAUCACCCAUGUAAUAAUAAAAAGGGUGGUAGAAGGUAGUCAACAAAC [Mod 9 of Pariah 4 by Hyphema in Round 1]”, the entries for the “apparent KD of MS2 coat protein” value in data set [1] and in data set [2] were 376 nM and 331 nM, respectively.

“GACUGCGAUGUGAAGGAUAUCCGCGACUGGACAUGAGGAUCACCCAUGUAUGCUUAGAACAUGCCGGAGAAGGUCACGAAUGAUU [JR_SS002_Sub1217]”: the “apparent KD of MS2 coat protein” value in data set [1] was 32.3 nM; in data set [2], 20.6 nM.

For “AAAAUAAAAUAAAAGGAUAUAAAAAAAUAUACAUGAGGAUCACCCAUGUAUAUAAAAAUAAAAUAAAAGAAGGAAUAAAAAUAAA [SS2 506: MS2 6]”, the “apparent KD of MS2 coat protein” value in data set [1] amounted to 11.1 nM; in data set [2] it was 10.3 nM.
